One experiment deals with hClaudin18.2 (human, UniProt P56856 1-261). Description: FACS. In general terms: Flow cytometry measures light scatter and fluorescence of single cells or particles in a stream.
Another experiment deals with CLDN18.2 (human, UniProt P56856 1-261). As to the kind of experiment: FACS.

In patent US20240034784A1 (published 2024) one finds EC50 data, which are given here for one molecule.

Broadly, the EC50 is the concentration at which the effect is half-maximal.

B1: IMAB362 (antibody, V domains shown)
VH: QVQLQQPGAELVRPGASVKLSCKASGYTFTSYWINWVKQRPGQGLEWIGNIYPSDSYTNYNQKFKDKATLTVDKSSSTAYMQLSSPTSEDSAVYYCTRSWRGNSFDYWGQGTTLTVSS
VL: DIVMTQSPSSLTVTAGEKVTMSCKSSQSLLNSGNQKNYLTWYQQKPGQPPKLLIYWASTRESGVPDRFTGSGSGTDFTLTISSVQAEDLAVYYCQNDYSYPFTFGSGTKLEIKR
Turning to B1, the values for the EC50 in the experiment with hClaudin18.2 and with CLDN18.2 were 6.72 nM and 19.1 nM, respectively.
